This is an account of results in PMC5159607.

Substrate in the data set: Oc1ccc2c(c1)OC[C@@]1(O)c3ccc(O)cc3O[C@@H]21
Briefly: HPLC prenyltransferase assay, recombinant yeast microsomes, Lineweaver-Burk. The format is biochemical, Glycine max. As to conditions: 400 µM DMAPP, divalent cation required (Mg2+ preferred), 30 °C, 15 min.

B1: G2DT (PT7; ΔTP-PT7) (Glycine max) (protein)
chain: YKKKTQIECNILRSQQSSLNHHYKRIEGGATYQDCDKKYVVKAIPEPTFDSEPCASNPENVVDSAKKILDVFYHFCYPYSMIAIILCAISSSLLAVEKPSDISSSFLIGVLQALVPHLFVAVFANVVNQVFDYEIDKINKPYLPLASGQLSFTTAVFIAASLLIMSFWLSLVIGSWPLIWNVVLTSSVWNVYSINVPLLRWKRHPLLATICTISVWAFILPITFFLHMQTFVLKRPIVFPRSLIFYVVFMIFYSLGMALSKDISDVKGDKAYGIDTLAIRLGQKWVFWICIILFEMAFGVALLAGATSSYLWIKIVTGLGHAILASILLYQAKSIYLSNKVSTISFYMLIWKLLYAAYFLMALIR
The term Km denotes the concentration of substrate that gives half-maximal velocity. As to B1, the Km worked out at 183 µM.
